Results taken from patent US20140087995A1 (published 2014).
Blank lines part the entries; values can stand above or below the binder they belong to. Numbered stars: 1 amine (or outer) side, 2 acyl side, 3 side chain; on linkers, the order of the positions; unused ones are H or OH. Bridge positions count the residues as written; N and C are the ends. Side chains are listed from the residue outwards. Ends that are not written are not given here. * marks the point of attachment. C20 diacid = O=C(O)CCCCCCCCCCCCCCCCCCC(=O)*; γGlu = O=C(O)[C@H](CCC(=O)[*:2])N[*:1]

Target: T1, human amylin 3(a) receptor (human calcitonin receptor co-expressed with RAMP-3) (human, UniProt P30988 25-474; O60896 24-148, limits assumed)
T1 sequence (looked up) 1: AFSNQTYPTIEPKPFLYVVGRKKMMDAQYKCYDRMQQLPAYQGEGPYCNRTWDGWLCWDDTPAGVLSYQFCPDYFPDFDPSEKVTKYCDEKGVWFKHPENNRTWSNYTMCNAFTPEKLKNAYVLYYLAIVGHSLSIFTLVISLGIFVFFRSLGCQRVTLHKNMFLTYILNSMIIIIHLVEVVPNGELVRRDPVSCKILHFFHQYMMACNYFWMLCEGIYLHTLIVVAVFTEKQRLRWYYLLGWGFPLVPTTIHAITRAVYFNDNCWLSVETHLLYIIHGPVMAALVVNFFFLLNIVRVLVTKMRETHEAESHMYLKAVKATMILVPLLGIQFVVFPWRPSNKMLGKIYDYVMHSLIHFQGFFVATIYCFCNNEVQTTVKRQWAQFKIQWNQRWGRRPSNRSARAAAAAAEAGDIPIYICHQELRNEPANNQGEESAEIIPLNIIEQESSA
T1 sequence (looked up) 2: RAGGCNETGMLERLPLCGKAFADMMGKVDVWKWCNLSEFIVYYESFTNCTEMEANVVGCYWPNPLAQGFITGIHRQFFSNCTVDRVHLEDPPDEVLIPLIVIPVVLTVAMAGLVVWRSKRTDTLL
Assay: cell-based or functional assay

Ratio hCT/hAmylin funct. (hCTR EC50 over hAmylin-R EC50): 41.6
hAmylin-R funct. EC50 (pM): 405 pM
B1: N^ε1-[(4S)-4-carboxy-4-(19-carboxynonadecanoylamino)butanoyl]-[Arg14,Arg17,Pro21,Pro27]-h-amylin (peptide)
peptide: K([γGlu-C20 diacid])CNTATCATQRLARFLRHSSPNFGAIPSSTNVGSNTY-NH2
modifications: disulfide 2-7; N-terminus assumed
SMILES: CC[C@H](C)[C@H](NC(=O)[C@H](C)NC(=O)CNC(=O)[C@H](Cc1ccccc1)NC(=O)[C@H](CC(N)=O)NC(=O)[C@@H]1CCCN1C(=O)[C@H](CO)NC(=O)[C@H](CO)NC(=O)[C@H](Cc1c[nH]cn1)NC(=O)[C@H](CCCNC(=N)N)NC(=O)[C@H](CC(C)C)NC(=O)[C@H](Cc1ccccc1)NC(=O)[C@H](CCCNC(=N)N)NC(=O)[C@H](C)NC(=O)[C@H](CC(C)C)NC(=O)[C@H](CCCNC(=N)N)NC(=O)[C@H](CCC(N)=O)NC(=O)[C@@H](NC(=O)[C@H](C)NC(=O)[C@@H]1CSSC[C@H](NC(=O)[C@@H](N)CCCCNC(=O)CC[C@H](NC(=O)CCCCCCCCCCCCCCCCCCC(=O)O)C(=O)O)C(=O)N[C@@H](CC(N)=O)C(=O)N[C@@H]([C@@H](C)O)C(=O)N[C@@H](C)C(=O)N[C@@H]([C@@H](C)O)C(=O)N1)[C@@H](C)O)C(=O)N1CCC[C@H]1C(=O)N[C@@H](CO)C(=O)N[C@@H](CO)C(=O)N[C@H](C(=O)N[C@@H](CC(N)=O)C(=O)N[C@H](C(=O)NCC(=O)N[C@@H](CO)C(=O)N[C@@H](CC(N)=O)C(=O)N[C@H](C(=O)N[C@@H](Cc1ccc(O)cc1)C(N)=O)[C@@H](C)O)C(C)C)[C@@H](C)O
notes: also called compound 83

Ratio hCT/hAmylin funct. (hCTR EC50 over hAmylin-R EC50): 24.5
hAmylin-R funct. EC50 (pM): 161 pM
B2: N^ε1-[(4S)-4-carboxy-4-(19-carboxynonadecanoylamino)butanoyl]-[Arg17,Pro21,Pro27,Arg34]-h-amylin (peptide)
peptide: K([γGlu-C20 diacid])CNTATCATQRLANFLRHSSPNFGAIPSSTNVGRNTY-NH2
modifications: disulfide 2-7; N-terminus assumed
SMILES: CC[C@H](C)[C@H](NC(=O)[C@H](C)NC(=O)CNC(=O)[C@H](Cc1ccccc1)NC(=O)[C@H](CC(N)=O)NC(=O)[C@@H]1CCCN1C(=O)[C@H](CO)NC(=O)[C@H](CO)NC(=O)[C@H](Cc1c[nH]cn1)NC(=O)[C@H](CCCNC(=N)N)NC(=O)[C@H](CC(C)C)NC(=O)[C@H](Cc1ccccc1)NC(=O)[C@H](CC(N)=O)NC(=O)[C@H](C)NC(=O)[C@H](CC(C)C)NC(=O)[C@H](CCCNC(=N)N)NC(=O)[C@H](CCC(N)=O)NC(=O)[C@@H](NC(=O)[C@H](C)NC(=O)[C@@H]1CSSC[C@H](NC(=O)[C@@H](N)CCCCNC(=O)CC[C@H](NC(=O)CCCCCCCCCCCCCCCCCCC(=O)O)C(=O)O)C(=O)N[C@@H](CC(N)=O)C(=O)N[C@@H]([C@@H](C)O)C(=O)N[C@@H](C)C(=O)N[C@@H]([C@@H](C)O)C(=O)N1)[C@@H](C)O)C(=O)N1CCC[C@H]1C(=O)N[C@@H](CO)C(=O)N[C@@H](CO)C(=O)N[C@H](C(=O)N[C@@H](CC(N)=O)C(=O)N[C@H](C(=O)NCC(=O)N[C@@H](CCCNC(=N)N)C(=O)N[C@@H](CC(N)=O)C(=O)N[C@H](C(=O)N[C@@H](Cc1ccc(O)cc1)C(N)=O)[C@@H](C)O)C(C)C)[C@@H](C)O
notes: also called compound 79
